assay: soluble on expression in E. coli; label from the status in PepcDB or PDB records

| Sequence | soluble on expression in E. coli |
| --- | --- |
| MFSRPGLPVEYLQVPSASMGRDIKVQFQGGGPHAVYLLDGLRAQDDYNGWDINTPAFEEYYQSGLSVIMPVGGQSSFYTDWYQPSQSNGQNYTYKWETFLTREMPAWLQANKGVSPTGNAAVGLSMSGGSALILAAYYPQQFPYAASLSGFLNPSEGWWPTLIGLAMNDSGGYNANSMWGPSSDPAWKRNDPMVQIPRLVANNTRIWVYCGNGTPSDLGGDNIPAKFLEGLTLRTNQTFRDTYAADGGRNGVFNFPPNGTHSWPYWNEQLVAMKADIQHVLNGATPPAAPAAPAALEHHHHHH | soluble |
| MAHHHHHHMGKKKVGEIQRSEDFCIPAGDRDANSALPAEEWPLLLKNYDKMNVRSTHFTLLECGWSPLRRPLAEYIKYGMINMDKPSNPSSHEVVSWIKRILKCDKTGHAGTLDPKVTGALIICTDRATRLVKSQQNAGKTYIGVLRLHDTVSQKKVDAALQRLTGPCFQRPPLIAAVKRQLRIRNIYSNQLIEYDKHRHLAVFETHCEAGTYIRTLCVHVGLILGAGGHMEELRRIRTGVITENDHLSTMHDVMDAQWLYENEKDDTYLRRVILPCEYLLSNHKRIVVKDSAVNAVCYGAKLMIPGLARFDNGIERDDVVVLMTTKGEAIALAYAEMTTSQMASVDHGIVARSKRVIMDRDTYPRRWGLGPIAVKKRSMMKDGLLDKYGRPQSNTPSDWFYVDYGGVKTNAEGVQYGQAPSKVGGVKRQRVPDSDDD | not soluble |
| KKMREEGVHEGCMEQIYRMFSQRLYKEDGSAAEVDDMNRLRLDDWELREDIQQHCRELWPQITTENLKELTDYVEYKEEFLKLFGFGVEGVDYEADVNPAVETDFIQI | not soluble |
| MGSDKIHHHHHHMTAGRIRIDEVIKDGEKIIAVSRTSPFYPDGKGGQLGDRGKIGPANVLKVKEKNGYILHYLDAHLEPGDYECEIDPARRKDIACQHTAQHILSAAFLKVADLETVSFHMGERVSTIDLNAPFVLEDVLEEAEDLANEVVRSCERVEILEIEKEEAEKMNLRKLPNVEGKVRVVKIGDFDVTACGGFHVENTGEIGLIKIVDTEKVKKVLTRIYFTAGDRALKDYREKDKLLKSLSRVLTTSTKELLKRAENLLEEVKEKSAKLDKLSEKYAEILSKVAEPEKVGKYYLYHFSGTPEEMKYLPKFLADRKDTIVLLEHPDRIEIVSNWIDCRKIFEKLKDQLNVEGGSSQKRAVITANSASRIVEKLREILKWF | not soluble |
| MQDEVETEVIIKDIFKQGKICFIPQYQFQSNHMDMVRLTSPEEIALLPKTSWNIHQPGEGDVREEALSTGGLDLIFLPGLGFDKDGNRLGRGKGYYDTYLKRCVQHQEVKPYTMALAFKEQICPQIPVDEHDMKVDEVLYEDSPAS | soluble |
| MKAMHMEQKIYKAKFSEYQLADNFINFNYLLKFKLGPEDVRAKGAFSTIFESTMLDWDLQLHKQFAGHILHSRESNWVISLNGSGVRDSYPPLHKLYFKVKAMGSDGSIKKSLKYFIDGLPIAPAERRGRMDHRSYTTLQNTQFERDLSTLIAEAKKKAQTIQLETRLEFKKNDLVDMKYLLGNGAPNMPDSLDYYFDAITNKSRHDLKLKTSDGMHFVMTNKEIVCLASQFFRQHLKDTTTEYTVGRADSVQSIDICLTYMITGIYKKPALLSPKLAFEIFALAMQWKVFEPKVLKNSIEKHCCEELQKNYEDIMYVCNMLIIADDAQFANVQNCCIATLVFYHAHDFIRIFVIGNHPLKERFSRRQEFLRPSLTMQVKRAFAASNESKCFIKFLPAIGED | not soluble |
| MSAVSYSMHRTTTTTSSSSHGGVSAGHAAEEFVASAEREKQEMQQLNSRLEVYISRVRQLEDRNKELVIELDTLRGSLGNDIGQIKFKFNDSLVKVRREISEAHSGTIGVEVKVDRLRDDLNDYRHRYEEARREVEREKTTWGGAISQAQAELDTNKSRYAAILDEEKRLYAEQDQLYLQLAAAKDELDAAIVDRRRLQAEEDDLKIELEFLGRIHSQEITELRTLLAQAPADTREFFKNELALAIREIKAEYDKIIQTTRVDLETIFQSKISAVESSIVSKNEAAVFRQEEIRKMNESITTLRAKLSELEARNSALEREANTLQIQLGEDQRAYESELHKRDNALRFMREDCQTLIAELQALLNTKQTLDTEIAIYRKLVESEEGRFTHVGQGVVVAQQETTRLVPVEQDHWDSGEVQTRSSFKRHAKGNVSIVECDPQGKYIILENTSGSVAEDVSNFEIRRVIDGVQAFVFRLPSHLVIQQHGHLKIYGRNSGGINSPPDSIVMESHPSWGQGGQVETFLYNSHGIEKASHIQTTVASSR | not soluble |
| MKSKVAIVRTKPSTVLEDYHRLMNLAEYQNYISKDVDTALKINISWHFFYPGSSTTPWQLEGVIRALKRDGYNPELIHGCHNRTVVIDAHLGERENKQINVIKAHNLRNIHLYEGEEWIDIREAVGDLTKKFLCLNEVYPKGFSIPKRFIGENIIHLPTVKTHVFTTTTGAMKNAFGGLLNEKRHWTHPVIHETLVDLLMIQKKIHKGIFAVMDGTFAGDGPGPRCMVPHVKNVLLASADQVAIDAVAAKLMGFDPLKDCKYIRLAHDAGLGCGDVRQIEIVGDVDALNENWNFVGPYKKMTFASKCQHLIYWGPLKKPVEWTLKTILAPWSYIASVVYHDMYWYPKNYGRVEEILNSDWGRLFANWEQLQLPADDLSVPGWEHVGDKPLKLDKETSKMIRKAFRVLGTAIREAPEFSAKKSKKACK | soluble |
| MAHHHHHHMGTLEAQTQGPGSMSMAQQFIDIGANLTDDNYFGNYHGKHYHEEDIDVVLQRAERNGLSHIIITSGCLNDFKKAIEIINKYQNLTNIKLVTTIGVHPTRTNELKQEGYLDELLLLCEKNIDKVVAIGEIGLDYERLQFSDKETQLSGYRTLSILHQKYPYLPFFFHCRKSWSDLCQLNKELGYNGCKGVVHCFDGTEEEMNQILNEGWDIGVTGNSLQSIELLNVMKQIPIERLHIETDCPYCGIKKTSAGFKYLKEKDFGVKVEKYQRNKYVQRRNEPSNIIDIAIIMSSIKHISLFEFVNKVYSNSMNMYFPTMN | soluble |
| MSSVSEVNVDIKDFLMSINLEQYLLHFHESGFTTVKDCAAINDSLLQKIGISPTGHRRRILKQLQIILSKMQDIPIYANVHKTKKNDDPSKDYHVPSSDQNICIELSNSGSVQTSSPPQLETVRKNLEDSDASVERSQYPQSDDKLSPPKRDFPTAEEPHLNLGSLNDSLFGSDNIKIESLITKKTVDHTVEEQQTEKVKLITENLSKLPNADSECLSFVGCSTSGTNSGNGTNGLLEGSPPSPFFKFQGEMIVNDLYVPSSPILAPVRSRSKLVSRPSRSFLLRHRPVPEIPGSTKGVSGSYFRERRNVATSTEKSVAWQNSNEENSSSIFPYGETFLFQRLENSKKRSIKNEFLTQGEALKGEAATATNSFIIKSSIYDNRKEKISEDKVEDIWIPREDKNNFLIDTASESEYSTVEECFQSLRRKNSKASKSRTQKALILDSVNRHSYPLSSTSGNADSSAVSSQAISPYACFYGASAKKVKSGWLDKLSPQGKRMFQKRWVKFDGLSISYYNNEKEMYSKGIIPLSAISTVRVQGDNKFEVVTTQRTFVFRVEKEEERNDWISILLNALKSQSLTSQSQAVVTPEKCGYLELRGYKAKIFTVLSGNSVWLCKNEQDFKSGLGITIIPMNVANVKQVDRTVKQSFEIITPYRSFSFTAETEKEKQDWIEAVQQSIAETLSDYEVAEKIWFNESNRSCADCKAPDPDWASINLCVVICKKCAGQHRSLGPKDSKVRSLKMDASIWSNELIELFIVIGNKRANDFWAGNLQKDEELHMDSPVEKRKNFITQKYKEGKFRKTLLASLTKEELNKALCAAVVKPDVLETMALLFSGADVMCATGDPVHSTPYLLAKKAGQSLQMEFLYHNKFSDFPQHDIHSEGVLSQESSQSTFLCDFLYQAPSAASKLSSEKKLLEETNKKWCVLEGGFLSYYENDKSTTPNGTININEVICLAIHKEDFYLNTGPIFIFEIYLPSERVFLFGAETSQAQRKWTEAIAKHFVPLFAENLTEADYDLIGQLFYKDCHALDQWRKGWFAMDKSSLHFCLQMQEVQGDRMHLRRLQELTISTMVQNGEKLDVLLLVEKGRTLYIHGHTKLDFTVWHTAIEKAAGTDGNALQDQQLSKNDVPIIVNSCIAFVTQYGLGCKYIYQKNGDPLHISELLESFKKDARSFKLRAGKHQLEDVTAVLKSFLSDIDDALLTKELYPYWISALDTQDDKERIKKYGAFIRSLPGVNRATLAAIIEHLYRVQKCSEINHMNAHNLALVFSSCLFQTKGQTSEEVNVIEDLINNYVEIFEVIILYPALVKMVIMSLFANKYLCC | soluble |
